In the Human Domainome abundance scans (Beltran et al. 2025):
± gives the uncertainty stated by the source.

B1: Storkhead-box protein 2, residues 64 to 141; numbered along this chain, Q9P2F5 (parent)
chain: SPISQSQFIPLGEILCLAISAMNSARKPVTQEALMEHLTTCFPGVPTPSQEILRHTLNTLVRERKIYPTPDGYFIVTP

Variants of: B1
Test: abundance fitness (aPCA) (normalised: wild type 0, dead -1); higher = more abundant; growth selection in yeast, the domain comes from the species named
Settings: Homo sapiens

Abundance fitness of substitutions, site by site:
K65: I -0.21 ± 0.21; L -0.06 ± 0.039; G -0.541 ± 0.037; S -0.082 ± 0.058; H 0.013 ± 0.084; Q 0.078 ± 0.067; M -0.171 ± 0.064; V 0 ± 0.048; C -0.208 ± 0.072; R -0.031 ± 0.038; F -0.084 ± 0.093; A -0.134 ± 0.054; Y -0.154 ± 0.14; D -0.443 ± 0.089; P -0.967 ± 0.1; N -0.493 ± 0.31; W -0.209 ± 0.047; E -0.167 ± 0.079; T -0.03 ± 0.063
Y67: G -0.053 ± 0.036; M 0.102 ± 0.061; N -0.06 ± 0.096; T -0.05 ± 0.058; K 0.083 ± 0.11; R 0.022 ± 0.035; C 0.039 ± 0.053; I 0.02 ± 0.12; L -0.029 ± 0.042; A 0.03 ± 0.048; V -0.02 ± 0.039; Q -0.017 ± 0.091; W -0.049 ± 0.049; H -0.006 ± 0.1; F -0.021 ± 0.065; S 0.001 ± 0.043; P -0.566 ± 0.065
I75: F -0.109 ± 0.073; P -0.039 ± 0.051; L -0.017 ± 0.039; C 0.017 ± 0.082; H -0.172 ± 0.17; M 0.1 ± 0.058; V 0.024 ± 0.051; N -0.177 ± 0.15; Q -0.026 ± 0.059; K -0.219 ± 0.1; G -0.033 ± 0.04; Y -0.013 ± 0.054; S 0.038 ± 0.049; A -0.04 ± 0.057; W -0.057 ± 0.049
T69: M -0.148 ± 0.075; Q -0.036 ± 0.065; A -0.028 ± 0.061; Y -0.358 ± 0.13; D -0.04 ± 0.11; L -0.195 ± 0.042; H -0.071 ± 0.075; V -0.13 ± 0.044; W -0.362 ± 0.065; N -0.042 ± 0.13; E -0.095 ± 0.041; K -0.249 ± 0.1; G -0.003 ± 0.032; I -0.298 ± 0.15; R -0.015 ± 0.028; P -0.703 ± 0.087
V76: M 0.035 ± 0.075; G -0.011 ± 0.036; E 0.037 ± 0.064; T -0.03 ± 0.057; A 0.001 ± 0.041; Q -0.007 ± 0.078; C 0.03 ± 0.069; I -0.363 ± 0.12; F -0.012 ± 0.096; K 0.032 ± 0.099; W -0.028 ± 0.051; H -0.114 ± 0.092; P 0.001 ± 0.051; D -0.102 ± 0.089; S 0.092 ± 0.044; N 0.05 ± 0.078; Y -0.087 ± 0.11
D71: N -0.012 ± 0.16; V -0.022 ± 0.063; C -0.154 ± 0.061; Q -0.054 ± 0.075; W -0.189 ± 0.047; M -0.054 ± 0.083; I -0.313 ± 0.25; A -0.002 ± 0.049; T 0.004 ± 0.079; F -0.099 ± 0.056; S -0.05 ± 0.046; P -0.223 ± 0.054; E -0.005 ± 0.069; R -0.088 ± 0.037; K 0.073 ± 0.088; Y -0.243 ± 0.099; H 0.031 ± 0.081; G 0.018 ± 0.037
I66: M -0.249 ± 0.077; Q -1.01 ± 0.18; G -0.894 ± 0.074; V -0.041 ± 0.048; R -1.17 ± 0.12; F -0.937 ± 0.13; T -0.38 ± 0.055; L -0.05 ± 0.041; A -0.173 ± 0.05; C 0.016 ± 0.059; W -0.847 ± 0.079; H -1 ± 0.24; E -1.08 ± 0.21; Y -0.971 ± 0.27; D -1.02 ± 0.27
P68: C 0.044 ± 0.043; S 0.059 ± 0.049; H 0.051 ± 0.093; K -0.082 ± 0.23; N 0.009 ± 0.15; L 0.017 ± 0.035; A 0.065 ± 0.049; V 0.082 ± 0.036; F -0.014 ± 0.076; R 0 ± 0.034; D -0.042 ± 0.14; Y -0.141 ± 0.086; G -0.003 ± 0.027; I -0.046 ± 0.12; T 0.04 ± 0.093; W -0.057 ± 0.047; M -0.038 ± 0.056
P70: D 0.091 ± 0.063; S 0.016 ± 0.037; W -0.141 ± 0.047; H -0.143 ± 0.085; K 0.041 ± 0.068; G -0.027 ± 0.039; I 0.021 ± 0.11; V 0.011 ± 0.047; M -0.097 ± 0.077; F -0.081 ± 0.07; Q 0.034 ± 0.065; A 0.023 ± 0.045; Y -0.061 ± 0.079; T 0.037 ± 0.041; E -0.004 ± 0.078; R 0.05 ± 0.037; C -0.051 ± 0.071; N 0.036 ± 0.15
Y73: L -0.029 ± 0.042; M -0.108 ± 0.072; D -0.136 ± 0.14; P -0.149 ± 0.055; W -0.041 ± 0.06; T -0.174 ± 0.11; V -0.171 ± 0.063; I -0.261 ± 0.16; R -0.055 ± 0.048; E -0.089 ± 0.077; K -0.085 ± 0.1; Q -0.078 ± 0.054; S -0.011 ± 0.059; N 0.043 ± 0.23
T77: H -0.084 ± 0.079
